One block for each molecule: values may come before it.
What was measured:
ErbB3 [1] = target: T1, ErbB3 (Homo sapiens, UniProt P21860); test: ErbB phosphorylation (Theranostics Health platform): ErbB3 activation (pErbB3); type: cell-based; parameters: endogenous in cells; host or cells: SCCHN cell lines (Cal27, FaDu, UNC7, SCC61 and others); settings: Cal27 cells, similar results in FaDu
Description: ErbB phosphorylation was measured using the Theranostics Health platform.

ErbB3 [2] = target: T1, ErbB3
ErbB3 [3] = target: T1, ErbB3; test: cell-based or functional assay
ErbB3 [4] = target: T1, ErbB3; test: cell-based or functional assay; remark: listed apart in the source
ErbB3 [5] = target: T1, ErbB3; test: ErbB3 phosphorylation ELISA, titration of purified NRG proteins on T47D cells; type: cell-based; parameters: endogenous in cells
Description: Genes encoding the full extracellular domains of each NRG gene and isoform (NRG1α, NRG1β, NRG2α, and NRG2β) were modified to encode a signal peptide at their 5′ end, in order to induce secretion, and a His-tag at their 3′ end. Constructs were transfected into HEK293 cells and conditioned media was treated with NaCl to a final concentration of 0.5 M. NRG-containing media was purified by NiNTA chromatography and eluted with stepwise increases in imidazole in a phosphate buffer containing 0.5 M NaCl. NRG-containing fractions were pooled and further purified by size-exclusion chromatography with a mobile phase consisting of a phosphate-based buffer with 0.5 M NaCl. Purified NRG proteins were titrated on T47D breast cancer cells (which naturally express all ErbB receptors) for 10 minutes at 37° C. ErbB3 phosphorylation was measured by ELISA.

Molecule: pertuzumab: anti-ErbB2 monoclonal antibody [reference compound]
inhibiting or blocking EGF-stimulated activation of ErbB3 (ErbB3 [1]; presence of EGF): neither pertuzumab nor 2C2-YTE were capable of inhibiting or blocking
activation of ErbB3 (ErbB3 [1]; presence of NRG): blocked activation

Molecule: NRG1β full extracellular domain, His-tagged (from UniProt Q02297 20-242) (ligand)
EC50 (read off the curve), ErbB3 phosphorylation in T47D cells (ELISA) [panel B] (ErbB3 [2]): 1 nM
potency of ErbB3 phosphorylation relative to the other NRG isoforms, T47D cells (ErbB3 [3]): 10 fold

B3: NRG1β: purified His-tagged full extracellular domain of neuregulin isoform, recombinantly expressed by HEK293 cells (protein, UniProt Q02297 20-242, looked up)
extracellular domain: SGKKPESAAGSQSPALPPRLKEMKSQESAAGSKLVLRCETSSEYSSLRFKWFKNGNELNRKNKPQNIKIQKKPGKSELRINKASLADSGEYMCKVISKLGNDSASANITIVESNEIITGMPASTEGAYVSSESPIRISVSTEGANTSSSTSTSTTGTSHLVKCAEKEKTFCVNGGECFMVKDLSNPSRYLCKCQPGFTGARCTENVPMKVQNQEKAEELYQKR
modifications: extracellular domain His tag
notes: purified His-tagged full extracellular domain of neuregulin isoform, recombinantly expressed by HEK293 cells
potency of ErbB3 activation relative to the other NRG isoforms (ErbB3 [5]): approximately 10 fold

Continued, values first:

pY-H3 (VeraTag phosphorylated ErbB3), 4213 non-cancerous skin cell line, 2C2-YTE treatment (ErbB3 [4]): 0.6
pY-H3 (VeraTag phosphorylated ErbB3), 4213 non-cancerous skin cell line, control IgG1 treatment (baseline for 2C2-YTE) (ErbB3 [4]): 0.5
pY-H3 (VeraTag phosphorylated ErbB3), CAL27 cells, 2C2-YTE treatment (ErbB3 [4]): 0.6
pY-H3 (VeraTag phosphorylated ErbB3), CAL27 cells, control IgG1 treatment (baseline for 2C2-YTE) (ErbB3 [4]): 4.6
pY-H3 (VeraTag phosphorylated ErbB3), SCC35 cells, 2C2-YTE treatment (ErbB3 [4]): 0.4
pY-H3 (VeraTag phosphorylated ErbB3), SCC35 cells, control IgG1 treatment (baseline for 2C2-YTE) (ErbB3 [4]): 1.1
pY-H3 (VeraTag phosphorylated ErbB3), SCC61 cells, 2C2-YTE treatment (ErbB3 [4]): 0.6
pY-H3 (VeraTag phosphorylated ErbB3), SCC61 cells, control IgG1 treatment (baseline for 2C2-YTE) (ErbB3 [4]): 6.1
pY-H3 (VeraTag phosphorylated ErbB3), UNC7 cells, 2C2-YTE treatment (ErbB3 [4]): 0.4
pY-H3 (VeraTag phosphorylated ErbB3), UNC7 cells, control IgG1 treatment (baseline for 2C2-YTE) (ErbB3 [4]): 3.5
pY-H3 (VeraTag phosphorylated ErbB3), UNC10 cells, control IgG1/2C2-YTE (one value given) (ErbB3 [4]): 0
pY-H3 pharmacodynamic (PD) ratio, 4213 non-cancerous skin cell line (ErbB3 [4]): 1
pY-H3 pharmacodynamic (PD) ratio, CAL27 cells (ErbB3 [4]): 7.5
pY-H3 pharmacodynamic (PD) ratio, SCC35 cells (ErbB3 [4]): 2.8
pY-H3 pharmacodynamic (PD) ratio, SCC61 cells (ErbB3 [4]): 10.6
pY-H3 pharmacodynamic (PD) ratio, UNC7 cells (ErbB3 [4]): 8.4
pY-H3 pharmacodynamic (PD) ratio, UNC10 cells (ErbB3 [4]): 0
B1: 2C2-YTE anti-HER3 antibody (antibody, human IgG1, V domains shown)
VH: EVQLLESGGGLVQPGGSLRLSCAASGFTFSYYYMQWVRQAPGKGLEWVSYIGSSGGVTNYADSVKGRFTISRDNSKNTLYLQMNSLRAEDTAVYYCARVGLGDAFDIWGQGTMVTVSS
VL: QSVLTQPPSASGTPGQRVTISCSGSLSNIGLNYVSWYQQLPGTAPKLLISRNNQRPSGVPDRFSGSKSGTSASLAISGLRSEDEADYYCAAWDDSPPGEAFGGGTKLTVL

EC50 (read off the curve), ErbB3 phosphorylation in T47D cells (ELISA) [panel B] (ErbB3 [2]): 7 nM
B2: NRG2β full extracellular domain, His-tagged (ligand, UniProt O14511 112-405, looked up, not shown: small tags and cut ends)
chain: CYSPSLKSVQDQAYKAPVVVEGKVQGLVPAGGSSSNSTREPPASGRVALVKVLDKWPLRSGGLQREQVISVGSCVPLERNQRYIFFLEPTEQPLVFKTAFAPLDTNGKNLKKEVGKILCTDCATRPKLKKMKSQTGQVGEKQSLKCEAAAGNPQPSYRWFKDGKELNRSRDIRIKYGNGRKNSRLQFNKVKVEDAGEYVCEAENILGKDTVRGRLYVNSVSTTLSSWSGHARKCNETAKSYCVNGGVCYYIEGINQLSCKCPNGFFGQRCLEKLPLRLYMPDPKQKAEELYQKR
